{
  "source": "patent US20250076311A1",
  "about": "(Chugai, published 2025)",
  "key": {"[1]": {"biological_target": "T1, cynomolgus monkey FcγRIIIaS extracellular domain, His-tagged (cynomolgus monkey, UniProt Q8SPW2 21-206 at identity 1.00))", "T1 construct": "also called cyno FcγRIIIaS; cynoFcγRIIIaS; not shown: C-terminal His-tag", "T1 chain": "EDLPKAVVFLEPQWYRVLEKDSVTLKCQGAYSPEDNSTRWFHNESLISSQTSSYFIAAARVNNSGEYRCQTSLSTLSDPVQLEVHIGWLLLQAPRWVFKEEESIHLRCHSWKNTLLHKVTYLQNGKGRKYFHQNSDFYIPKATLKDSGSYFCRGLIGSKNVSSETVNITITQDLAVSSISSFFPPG", "experiment": "SPR Biacore, KD(SG1)/KD(variant)"}, "[2]": {"biological_target": "T2, human FcγRIIb extracellular domain, His-tagged (human, UniProt P31994 43-217)", "T2 construct": "also called FcgRIIb (human); not shown: C-terminal His-tag", "T2 sequence": "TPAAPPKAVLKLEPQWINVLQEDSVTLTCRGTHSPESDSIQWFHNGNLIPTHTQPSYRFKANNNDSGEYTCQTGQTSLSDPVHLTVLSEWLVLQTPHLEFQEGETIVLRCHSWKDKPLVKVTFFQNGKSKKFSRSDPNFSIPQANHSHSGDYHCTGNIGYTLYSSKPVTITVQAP", "experiment": "SPR Biacore, KD(SG1)/KD(variant)"}, "[3]": {"biological_target": "T3, cynomolgus monkey FcγRIIa1 extracellular domain, His-tagged (cynomolgus monkey)", "T3 construct": "also called cyno FcγRIIa1; cynoFcgRIIa1; not shown: C-terminal His-tag", "T3 chain": "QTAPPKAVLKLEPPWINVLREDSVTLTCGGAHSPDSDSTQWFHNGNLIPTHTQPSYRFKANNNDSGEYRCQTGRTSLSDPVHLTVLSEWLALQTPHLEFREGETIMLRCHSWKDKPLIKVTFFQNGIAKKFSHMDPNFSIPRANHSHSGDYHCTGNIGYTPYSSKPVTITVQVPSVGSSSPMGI", "experiment": "SPR Biacore, KD(SG1)/KD(variant)"}, "[4]": {"biological_target": "T4, human FcγRIIaH extracellular domain, His-tagged (human, UniProt P12318 34-217)", "T4 construct": "also called human FcγRIIa (type H); FcgRIIaH; not shown: C-terminal His-tag", "T4 sequence": "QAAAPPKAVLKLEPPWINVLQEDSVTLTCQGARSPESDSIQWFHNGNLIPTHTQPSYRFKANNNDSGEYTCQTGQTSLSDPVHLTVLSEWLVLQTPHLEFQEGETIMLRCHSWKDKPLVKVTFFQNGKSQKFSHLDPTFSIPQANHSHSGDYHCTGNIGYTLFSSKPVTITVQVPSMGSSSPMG", "experiment": "SPR Biacore, KD(SG1)/KD(variant)"}, "GST-hMSTN 41-140aa": {"biological_target": "T5, GST-hMSTN 41-140aa (human, UniProt O14793 41-140)", "T5 sequence": "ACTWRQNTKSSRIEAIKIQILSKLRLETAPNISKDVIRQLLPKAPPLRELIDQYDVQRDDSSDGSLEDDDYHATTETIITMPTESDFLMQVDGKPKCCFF", "experiment": "Western blot with the antibody as probe on GST-tagged 100-amino-acid fragments of the human latent myostatin propeptide expressed in E. coli BL21 (lanes 1-8), GST control (lane 9) and human latent myostatin 100 ng (lane 10)", "text": "(§1) Fragments of the N-terminal propeptide coding region of human latent myostatin were cloned into a pGEX4.1 vector so as to produce GST tagged propeptide fragments of 100 amino acid each, with 80 amino acid overlap (FIG. 22A). Protein expression was induced in transformed BL21 competent cells with Overnight Express Autoinduction System (Merck Millipore) and protein was extracted using the BUGBUSTER® protein extraction reagent (Novagen)."}, "GST-hMSTN 81-180aa": {"biological_target": "T6, GST-hMSTN 81-180aa (human, UniProt A1C2U3 81-180 (Pongo pygmaeus entry))", "T6 sequence": "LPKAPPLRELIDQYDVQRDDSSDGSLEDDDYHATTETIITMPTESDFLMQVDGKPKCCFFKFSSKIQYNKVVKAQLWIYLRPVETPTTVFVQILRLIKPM", "experiment": "Western blot with the antibody as probe on GST-tagged 100-amino-acid fragments of the human latent myostatin propeptide expressed in E. coli BL21 (lanes 1-8), GST control (lane 9) and human latent myostatin 100 ng (lane 10)", "text": "as §1"}, "GST-hMSTN 61-160aa": {"biological_target": "T7, GST-hMSTN 61-160aa (human, UniProt O14793 61-160)", "T7 sequence": "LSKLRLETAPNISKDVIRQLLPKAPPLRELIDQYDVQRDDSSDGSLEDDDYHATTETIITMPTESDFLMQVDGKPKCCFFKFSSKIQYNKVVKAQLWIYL", "experiment": "Western blot with the antibody as probe on GST-tagged 100-amino-acid fragments of the human latent myostatin propeptide expressed in E. coli BL21 (lanes 1-8), GST control (lane 9) and human latent myostatin 100 ng (lane 10)", "text": "as §1"}, "GST-hMSTN 101-200aa": {"biological_target": "T8, GST-hMSTN 101-200aa (human, UniProt A1C2U3 101-200 (Pongo pygmaeus entry))", "T8 sequence": "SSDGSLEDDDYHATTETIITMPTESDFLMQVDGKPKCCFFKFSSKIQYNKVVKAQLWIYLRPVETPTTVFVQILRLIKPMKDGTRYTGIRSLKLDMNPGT", "experiment": "Western blot with the antibody as probe on GST-tagged 100-amino-acid fragments of the human latent myostatin propeptide expressed in E. coli BL21 (lanes 1-8), GST control (lane 9) and human latent myostatin 100 ng (lane 10)", "text": "as §1"}, "Human latent myostatin [5]": {"biological_target": "T9, Human latent myostatin (human, UniProt O14793 25-266; O14793 267-375)", "T9 construct": "Biotinylated in the ELISAs; also called human myostatin latent form", "T9 sequence 1": "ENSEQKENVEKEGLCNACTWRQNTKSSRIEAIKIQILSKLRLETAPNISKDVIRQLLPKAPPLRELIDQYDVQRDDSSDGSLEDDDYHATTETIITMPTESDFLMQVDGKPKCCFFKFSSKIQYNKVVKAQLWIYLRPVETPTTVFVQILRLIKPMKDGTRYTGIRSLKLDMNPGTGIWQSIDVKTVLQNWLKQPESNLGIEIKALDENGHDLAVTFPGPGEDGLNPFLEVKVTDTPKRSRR", "T9 sequence 2": "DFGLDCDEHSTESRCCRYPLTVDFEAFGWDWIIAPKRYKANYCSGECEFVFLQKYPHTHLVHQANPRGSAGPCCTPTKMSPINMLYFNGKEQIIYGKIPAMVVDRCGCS", "experiment": "ELISA: biotinylated human latent myostatin (2 nM) on streptavidin-coated plate, antibody titrated, anti-human IgG-HRP, ABTS, OD405", "method": "Uncoated ELISA plates (NUNC-IMMUNO plate MAXISORP™ surface, Nalge Nunc International) were coated with 20 μL of 50 nM streptavidin (GenScript) for 2 hour at room temperature. Plates were then washed with PBST three times and blocked with 50 μL 20% Blocking One (Nacalai Tesque) for overnight. On the next day, each well of the plates was incubated with biotinylated human latent myostatin at 2 nM/well/20 μL or biotinylated human latent GDF11 at 20 nM/well/20 μL for 2 hours. After washing, 20 μL of antibody sample was added to the wells and the plates were left for 1 hour. The plates were washed and 20 μL of anti-human IgG-horseradish peroxidase (HRP) (Abcam) diluted in HEPES-buffered saline was added, and the plates were left for another hour. The wells were washed again, and then 50 μL ABTS (KPL) was added to each well, and the plates were incubated for 1 hour."}, "Human latent myostatin [6]": {"biological_target": "T9, Human latent myostatin", "experiment": "ELISA: biotinylated antigen (4 nM) on streptavidin-coated plate, antibody titrated, anti-human IgG-HRP, ABTS, OD405", "method": "(§2) Uncoated ELISA plates (NUNC-IMMUNO plate MAXISORP surface, Nalge Nunc International) were coated with 20 μL of 50 nM streptavidin (GenScript) for 1 hour at room temperature. Plates were then washed with PBST three times and blocked with 50 μL 20% Blocking One (Nacalai Tesque) overnight. On the next day, each well of each plate was incubated with biotinylated mature myostatin, human or mouse biotinylated latent myostatin, or biotinylated recombinant mouse myostatin propeptide-Fc chimera protein (R&D Systems) at 4 nM/well/20 μL for 2 hours. After washing, 20 μL of antibody sample was added to the wells and the plates were left for 1 hour. The plates were washed and 20 μL of anti-human IgG-horseradish peroxidase (HRP) (Abcam) diluted in HEPES-buffered saline was added, and the plates were left for another hour. The plates were then washed again, and then 50 μL ABTS (KPL) was added to each well, and the plates were incubated for 1 hour."}, "Mouse latent myostatin": {"biological_target": "T10, Mouse latent myostatin (mouse, UniProt O08689 26-267; O08689 268-376, limits assumed)", "T10 sequence 1": "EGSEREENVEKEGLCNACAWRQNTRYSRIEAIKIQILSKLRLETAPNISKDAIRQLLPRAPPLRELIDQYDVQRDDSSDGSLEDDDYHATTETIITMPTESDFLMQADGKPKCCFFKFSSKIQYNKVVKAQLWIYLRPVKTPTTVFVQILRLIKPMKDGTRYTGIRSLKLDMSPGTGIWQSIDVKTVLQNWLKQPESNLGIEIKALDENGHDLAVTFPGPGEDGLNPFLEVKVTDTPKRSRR", "T10 sequence 2": "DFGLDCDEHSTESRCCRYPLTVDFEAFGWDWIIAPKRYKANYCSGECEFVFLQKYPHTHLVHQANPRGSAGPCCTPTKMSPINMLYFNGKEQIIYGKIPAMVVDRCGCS", "experiment": "ELISA: biotinylated antigen (4 nM) on streptavidin-coated plate, antibody titrated, anti-human IgG-HRP, ABTS, OD405", "method": "as §2"}, "Mature myostatin": {"biological_target": "T11, Mature myostatin (human, UniProt O14793 267-375)", "T11 construct": "Disulfide-bonded homodimer; Biotinylated in the ELISA; also called human myostatin mature form; active myostatin", "T11 sequence": "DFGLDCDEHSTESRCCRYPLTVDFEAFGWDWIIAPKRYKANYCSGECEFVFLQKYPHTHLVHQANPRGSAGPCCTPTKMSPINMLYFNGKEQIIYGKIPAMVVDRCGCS", "experiment": "ELISA: biotinylated antigen (4 nM) on streptavidin-coated plate, antibody titrated, anti-human IgG-HRP, ABTS, OD405", "method": "as §2"}},
  "data": [
    {"binder": "M103205H795-MY068/M103202L889-SK1 (antibody, human IgG1, kappa, name in EU numbering, Substitution introduced into M103205H795-SG1; EU numbering) heavy: not shown light: DIVMTQSPATLSLSPGERATLSCTSSQSVYHANWLSWFQQKPGQPPKLLIYWASTLAYGVPSRFSGSGSGTDFTLTISSLQPEDAATYYCAGGYGGGRYAFGQGTKVEIKRTVAAPSVFIFPPSDEQLKSGTASVVCLLNNFYPREAKVQWKVDNALQSGNSQESVTEQDSKDSTYSLSSTLTLSKADYEKHKVYACEVTHQGLSSPVTKSFNRGEC", "values": [
      {"measurement": "KD fold (SG1 = 1)", "setting": "[1]", "result": 0.62, "unit": "fold"},
      {"measurement": "KD fold (SG1 = 1)", "setting": "[2]", "result": 2.2, "unit": "fold"}
    ]},
    {"binder": "M103205H795-MY124/M103202L889-SK1 (antibody, human IgG1, kappa, name in EU numbering, Substitution introduced into M103205H795-SG1; EU numbering) heavy: not shown light: DIVMTQSPATLSLSPGERATLSCTSSQSVYHANWLSWFQQKPGQPPKLLIYWASTLAYGVPSRFSGSGSGTDFTLTISSLQPEDAATYYCAGGYGGGRYAFGQGTKVEIKRTVAAPSVFIFPPSDEQLKSGTASVVCLLNNFYPREAKVQWKVDNALQSGNSQESVTEQDSKDSTYSLSSTLTLSKADYEKHKVYACEVTHQGLSSPVTKSFNRGEC", "values": [
      {"measurement": "KD fold (SG1 = 1)", "setting": "[3]", "result": 1.2, "unit": "fold"},
      {"measurement": "KD fold (SG1 = 1)", "setting": "[4]", "result": 4.5, "unit": "fold"}
    ]},
    {"binder": "MST1573 (antibody, human IgG1, kappa, V domains shown, Constant regions as for MST1504) VH: QSVEESGGRLVTPGTPLTLTCTVSGIDLSSSSMIWVRQAPGEGLKYIGFISKSGYTYYASWAKGRFTISKTSTTVDLKITSPTTEDTATYFCARGGYSGDWDYFTLWGPGTLVTVSS VL: DIVMTQTPASVEAAVGGTVTIKCQASESIGNALAWYQQKPGQPPKLLIYGAFNLESGVPSRFRGSGSGTEYTLTISDLECDDAATYYCQGYFWSSSTIYAFWAFGGGTKVEIKR", "values": [
      {"measurement": "binding result", "setting": "GST-hMSTN 41-140aa", "result": "no binding"},
      {"measurement": "binding result", "setting": "GST-hMSTN 81-180aa", "result": "no binding"},
      {"measurement": "binding result", "setting": "GST-hMSTN 61-160aa", "result": "no binding"},
      {"measurement": "binding result", "setting": "GST-hMSTN 101-200aa", "result": "no binding"}
    ]},
    {"binder": "MS_MST1032Ha-G1m/MST1032La-k0MC (antibody, human IgG1, kappa, V domains shown, Rabbit/human chimeric antibody; also called MST1032-G1m) VH: QSLEESGGRLVTPGGSLTVTCRVSGIDLSSYDISWVRQAPGKGLEWIGIISYAGSTYYASWAKGRFTISKTSTTVDLKMTSLTTEDTATYFCARGVPAYSTGGDLWGPGTLVTVSS VL: AQVLTQTASSVSAAVGGTVTINCQSSQSVYDNNWLSWFQQKPGQPPKLLIYWASTLASGVPSRFKGSGSGTQFTLTISDLECDDAATYYCAGGYGGGLYAFGGGTKVEIKR", "values": [
      {"measurement": "EC50 (read off the curve)", "setting": "Human latent myostatin [5]", "result": "~0.02", "unit": "µg/mL"},
      {"measurement": "EC50 (read off the curve)", "setting": "Human latent myostatin [6]", "result": "~0.008", "unit": "µg/mL"},
      {"measurement": "EC50 (read off the curve)", "setting": "Mouse latent myostatin", "result": "~0.01", "unit": "µg/mL"},
      {"measurement": "binding result", "setting": "Mature myostatin", "result": "no binding (tested: 10 ng/µL (log 1))"}
    ]}
  ]
}
